{
  "source": "patent US11407811B2",
  "about": "“Fusion protein, preparation method therefor and use thereof” (JIANGSU RONGTAI BIOTECH CO., LTD., priority 2017, dated 2022)",
  "key": {"[1]": {"test_system": "retinal blood vessels in OIR mice", "assay": "Retinal blood vessels in OIR mice", "type": "in vivo", "settings": "dose 64 μg, injected into the vitreous body on day 13, evaluated on day 17", "from_the_text": "Establishment of the OIR model: young mice and their mothers were exposed to 75% hyperoxic environment from day 7 to day 12 after birth of C57/B16 mice so that capillaries in the central retina rapidly disappeared. On day 12, the mice were returned to indoor air and the retinal blood vessels exposed to hyperoxia rapidly disappeared, which caused extensive abnormal neovascularization, and the central part of the retina remained largely avascular for a long time. After the blood vessels disappeared completely, the fusion protein (administration group, the doses of fusion protein I, protein II, protein III, protein IV, and protein V were all 64 μg) or physiological saline (negative group) was injected into the vitreous body on day 13. Retinal vessels were evaluated on day 17 (labeled as unclosed vessels, […] of Texas Red-labeled tomato lectin was injected into the left ventricle and cycled for 5 minutes)."}, "[2]": {"test_system": "cervical cancer cell Hela", "assay": "MTT assay, proliferation of cervical cancer cell Hela", "type": "cell-based", "protocol": "(§1) The MTT assay was used to detect the inhibitory effect of the integrin blocker fusion protein obtained in Example 1 on the proliferation of various tumor cells, including melanoma cell B16F10, gastric cancer cell MGC-803, lung cancer cell A549, liver cancer cell Hep-G2, breast cancer cell MDA-MB-231, colon cancer cell HCT-116, human glioma U87, and cervical cancer cell Hela.\n(§2) The tumor cells were cultured in a 5% CO2 incubator at 37° C. to a density of 90% or more, and collected by trypsinization. The cells were resuspended in the culture liquid and counted under a microscope. The cell concentration was adjusted to 3.0×10^4 cells/mL. The cell suspension was inoculated into a 96-well plate at 100 μL per well and cultured overnight in a 5% CO2 incubator at 37° C. […] After the cells were fully adhered, each dilution was added to a 96-well plate at 100 μL per well, respectively. […] 20 μL of 5 mg/mL MTT was added to each well of a 96-well plate, and incubation was continued for 4 hours. The medium was aspirated and 100 μL of DMSO per well were added to dissolve. The absorbance was measured at 570 nm with a microplate reader with a reference wavelength of 630 nm, and the proliferation inhibition (PI) was calculated. The formula is as follows: […]\n(§3) where Ntest is the OD value of the test group and Ncontrol is the OD value of the blank control group.\n(§4) The test was repeated 5 times independently. The results obtained from the test were calculated as mean±SD, and statistical t-test was performed. P<0.05 was considered as a significant difference, and P<0.01 was considered as an extremely significant difference."}, "[3]": {"test_system": "colon cancer cells HCT-116", "assay": "MTT assay, proliferation of colon cancer cell HCT-116", "type": "cell-based", "protocol": "as §1, §2, §3, §4"}, "[4]": {"test_system": "peritoneal capillary permeability in mice", "assay": "Peritoneal capillary permeability in mice (HAc, Evans blue)", "type": "in vivo", "settings": "for Exudation rate (OD590) / PI (%): mice", "protocol": "The drug was administered once by injection (EDSM needed to be administered twice a day), and the blank model group was given an equal volume of physiological saline and fed normally. On the 5th day, a 5 g/L Evans blue physiological saline solution was injected into the tail vein at […], followed by intraperitoneal injection ([…]) of a HAc solution (6 mL/L) to induce inflammation. After 20 min, the mice were sacrificed by cervical dislocation. 5 mL of physiological saline was intraperitoneally injected, the abdomen was gently rubbed for 2 min, the abdominal cavity was cut, a peritoneal washing solution was collected and centrifuged at 4000 rpm for 10 min, 1 mL of supernatant was taken, and 3 mL of physiological saline was added to obtain 4 mL of dilution. The absorbance OD value of the dilution was measured by an ultraviolet spectrophotometer at a wavelength of 590 nm, and the amount of pigment exudation was expressed by the OD590 nm value, and the peritoneal capillary permeability in mice was examined."}, "[5]": {"test_system": "angiogenesis of chicken embryo chorioallantoic membrane", "assay": "Chicken embryo chorioallantoic membrane (CAM) angiogenesis assay", "type": "in vivo", "settings": "for Blood vessel number / PI: CAM, 72 hours", "from_the_text": "In this study, CAM assay was used to investigate the activity of fusion protein I, protein II, protein III, protein IV, and protein V to inhibit angiogenesis in vivo. The study has shown that the biosynthesis rate of collagen reached the maximum on the 8th to 11th day of chicken embryo development, which was the most vigorous stage of angiogenesis, and the body's immune system had not yet been fully established at that time, and thus the chicken embryos developed to the 8th day was selected to be administered. […] The following steps were used.\n(1) The White Leghorn chicken embryos on day 6 were cultured in a 37° C. incubator at 60%-70% humidity for two days.\n(2) A 1.0 cm×1.0 cm window was drilled above the chicken embryo air sac, and the inner membrane was torn off with forceps to expose the chorioallantoic membrane. Lens paper having a diameter of 5 mm was used as a loading carrier, and was placed on the chorioallantoic membrane of the chicken embryo air sac. Filter paper with PBS was used as a blank group, and the administration group was added with different doses of fusion protein.\n(3) The chicken embryo air sac was sealed with a sterile transparent tape, and after culturing at 37° C. for 72 hours, the chicken embryo air sac was opened, and a fixative (formaldehyde:acetone=1:1) was added for fixation for 15 minutes. The chorioallantoic membrane to which the lens paper was adhered was taken out, the distribution of the new blood vessels was observed, and the new blood vessels were counted and photographed. Five replicates were set for each dose and the results were statistically analyzed."}},
  "note": "Marks after values point to notes of the source that are not given here.",
  "data": [
    {"molecule": "Protein II: IgG2-Fc linked to antiangiogenesis polypeptide EDSM-Y via a flexible linker; SEQ ID NO: 17 (protein) ERKCCVECPPCPAPPVAGPSVFLFPPKPKDTLMISRTPEVTCVVVDVSHEDPEVQFNWYVDGVEVHNAKTKPREEQFNSTFRVVSVLTVVHQDWLNGKEYKCKVSNKGLPAPIEKTISKTKGQPREPQVYTLPPSREEMTKNQVSLTCLVKGFYPSDISVEWESNGQPENNYKTTPPMLDSDGSFFLYSKLTVDKSRWQQGNVFSCSVMHEALHNHYTQKSLSLSPGKGGGGSGGGGSGGGGSFQPVLHLVALNSPLSGGMRGIRGADFQCFQQARAVGLAGTFRAGGGGRGD", "values": [
      {"measurement": "Area (mm^2) occupied by neovascular clusters", "setting": "[1]", "value": "0.146 ± 0.011* mm^2"},
      {"measurement": "Reduce (%)", "setting": "[1]", "value": 30.81, "unit": "%"},
      {"measurement": "Reduce (%)", "setting": "[1]; listed as protein II", "value": 30.81, "unit": "%"},
      {"measurement": "A570 nm/A630 nm", "setting": "[2]; dose 1 μg/mL", "value": "0.7798 ± 0.0386"},
      {"measurement": "PI (%)", "setting": "[2]; dose 1 μg/mL", "value": 2.43, "unit": "%"},
      {"measurement": "A570 nm/A630 nm", "setting": "[2]; dose 2 μg/mL", "value": "0.7412 ± 0.0407"},
      {"measurement": "PI (%)", "setting": "[2]; dose 2 μg/mL", "value": 7.26, "unit": "%"},
      {"measurement": "A570 nm/A630 nm", "setting": "[2]; dose 4 μg/mL", "value": "0.6946 ± 0.0272"},
      {"measurement": "PI (%)", "setting": "[2]; dose 4 μg/mL", "value": 13.09, "unit": "%"},
      {"measurement": "A570 nm/A630 nm", "setting": "[2]; dose 8 μg/mL", "value": "0.6312 ± 0.0313"},
      {"measurement": "PI (%)", "setting": "[2]; dose 8 μg/mL", "value": 21.02, "unit": "%"},
      {"measurement": "A570 nm/A630 nm", "setting": "[2]; dose 16 μg/mL", "value": "0.5418 ± 0.0286"},
      {"measurement": "PI (%)", "setting": "[2]; dose 16 μg/mL", "value": 32.21, "unit": "%"},
      {"measurement": "A570 nm/A630 nm", "setting": "[2]; dose 32 μg/mL", "value": "0.4788 ± 0.0262"},
      {"measurement": "PI (%)", "setting": "[2]; dose 32 μg/mL", "value": 40.09, "unit": "%"},
      {"measurement": "A570 nm/A630 nm", "setting": "[2]; dose 64 μg/mL", "value": "0.4023 ± 0.0314"},
      {"measurement": "PI (%)", "setting": "[2]; dose 64 μg/mL", "value": 49.66, "unit": "%"},
      {"measurement": "PI (%)", "setting": "[2]; dose 64 μg/mL, listed as protein II", "value": "about 45%"},
      {"measurement": "A570 nm/A630 nm", "setting": "[2]; dose 128 μg/mL", "value": "0.2878 ± 0.0275"},
      {"measurement": "PI (%)", "setting": "[2]; dose 128 μg/mL", "value": 63.99, "unit": "%"},
      {"measurement": "A570 nm/A630 nm", "setting": "[2]; dose 256 μg/mL", "value": "0.1748 ± 0.0303"},
      {"measurement": "PI (%)", "setting": "[2]; dose 256 μg/mL", "value": 78.13, "unit": "%"},
      {"measurement": "A570 nm/A630 nm", "setting": "[3]; dose 1 μg/mL", "value": "0.8310 ± 0.0394"},
      {"measurement": "PI (%)", "setting": "[3]; dose 1 μg/mL", "value": 5.59, "unit": "%"},
      {"measurement": "A570 nm/A630 nm", "setting": "[3]; dose 2 μg/mL", "value": "0.7925 ± 0.0415"},
      {"measurement": "PI (%)", "setting": "[3]; dose 2 μg/mL", "value": 9.96, "unit": "%"},
      {"measurement": "A570 nm/A630 nm", "setting": "[3]; dose 4 μg/mL", "value": "0.7555 ± 0.0283"},
      {"measurement": "PI (%)", "setting": "[3]; dose 4 μg/mL", "value": 14.17, "unit": "%"},
      {"measurement": "A570 nm/A630 nm", "setting": "[3]; dose 8 μg/mL", "value": "0.7023 ± 0.0347"},
      {"measurement": "PI (%)", "setting": "[3]; dose 8 μg/mL", "value": 20.21, "unit": "%"},
      {"measurement": "A570 nm/A630 nm", "setting": "[3]; dose 16 μg/mL", "value": "0.6556 ± 0.0292"},
      {"measurement": "PI (%)", "setting": "[3]; dose 16 μg/mL", "value": 25.52, "unit": "%"},
      {"measurement": "A570 nm/A630 nm", "setting": "[3]; dose 32 μg/mL", "value": "0.6113 ± 0.0279"},
      {"measurement": "PI (%)", "setting": "[3]; dose 32 μg/mL", "value": 30.55, "unit": "%"},
      {"measurement": "A570 nm/A630 nm", "setting": "[3]; dose 64 μg/mL", "value": "0.5498 ± 0.0374"},
      {"measurement": "PI (%)", "setting": "[3]; dose 64 μg/mL", "value": 37.54, "unit": "%"},
      {"measurement": "A570 nm/A630 nm", "setting": "[3]; dose 128 μg/mL", "value": "0.4898 ± 0.0289"},
      {"measurement": "PI (%)", "setting": "[3]; dose 128 μg/mL", "value": 44.35, "unit": "%"},
      {"measurement": "A570 nm/A630 nm", "setting": "[3]; dose 256 μg/mL", "value": "0.4497 ± 0.0316"},
      {"measurement": "PI (%)", "setting": "[3]; dose 256 μg/mL", "value": 48.91, "unit": "%"},
      {"measurement": "inhibition of the increase of peritoneal capillary permeability induced by glacial acetic acid", "setting": "[4]; in words", "value": "could significantly inhibit the increase of peritoneal capillary permeability"},
      {"measurement": "Exudation rate (OD590)", "setting": "[4]; dose 8 mg/kg", "value": "0.51 ± 0.06"},
      {"measurement": "PI (%)", "setting": "[4]; dose 8 mg/kg", "value": 26.09, "unit": "%"},
      {"measurement": "Exudation rate (OD590)", "setting": "[4]; dose 32 mg/kg", "value": "0.34 ± 0.03"},
      {"measurement": "PI (%)", "setting": "[4]; dose 32 mg/kg", "value": 50.72, "unit": "%"},
      {"measurement": "Exudation rate (OD590)", "setting": "[4]; dose 128 mg/kg", "value": "0.32 ± 0.07"},
      {"measurement": "PI (%)", "setting": "[4]; dose 128 mg/kg", "value": 53.62, "unit": "%"},
      {"measurement": "Blood vessel number", "setting": "[5]; 8 μg", "value": "102 ± 10"},
      {"measurement": "PI", "setting": "[5]; 8 μg", "value": 17.07, "unit": "%"},
      {"measurement": "Blood vessel number", "setting": "[5]; 32 μg", "value": "83 ± 11"},
      {"measurement": "PI", "setting": "[5]; 32 μg", "value": 32.52, "unit": "%"},
      {"measurement": "Blood vessel number", "setting": "[5]; 128 μg", "value": "66 ± 7"},
      {"measurement": "PI", "setting": "[5]; 128 μg", "value": 46.34, "unit": "%"},
      {"measurement": "inhibitory effect on angiogenesis of CAM", "setting": "[5]; high dose", "value": "~50", "unit": "%"}
    ]}
  ]
}
